# Columns and labels:
# [1] = target: rhB7-H2-Fc (fusion protein of the extracellular part of human B7-H2 (ICOSL) and mouse Fc gamma 1, R&D Systems Cat #165-B7) (human; mouse) (UniProt O75144); test: competition ELISA, coated B7-H2; competes with ICOS-biotin
# [2] = target: HuCTLA4-HuIgG1 (fusion protein of the extracellular part of human CD152 and human Fc gamma 1, CTLA4-Ig) (human) (UniProt P16410); test: alphascreen, CTLA4-Fc; blocked ligand biotinylated CD80-Fc
# [3] = target: human CTLA4 (Y201 mutated to valine) on stably transfected CHO-K1 cells (human) (UniProt P16410); test: FACS competition, human CTLA4 CHO cells; blocked ligand HuB7.1/Fc
# human CTLA4 (Y201 mutated to valine) on stably transfected CHO-K1 cells (human), sequence (P16410 other isoform, or with tags, fused parts or gaps, change not shown): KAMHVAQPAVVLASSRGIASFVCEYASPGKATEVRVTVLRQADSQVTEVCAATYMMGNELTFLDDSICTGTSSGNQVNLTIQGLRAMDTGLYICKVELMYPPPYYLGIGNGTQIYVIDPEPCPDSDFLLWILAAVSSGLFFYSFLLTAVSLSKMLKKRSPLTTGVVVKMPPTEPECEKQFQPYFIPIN
# HuCTLA4-HuIgG1 (fusion protein of the extracellular part of human CD152 and human Fc gamma 1, CTLA4-Ig) (human), sequence (P16410 36-161 limits assumed): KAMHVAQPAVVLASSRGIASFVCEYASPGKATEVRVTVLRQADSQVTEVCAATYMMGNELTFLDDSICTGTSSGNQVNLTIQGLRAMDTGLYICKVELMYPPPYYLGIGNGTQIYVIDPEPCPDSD
# rhB7-H2-Fc (fusion protein of the extracellular part of human B7-H2 (ICOSL) and mouse Fc gamma 1, R&D Systems Cat #165-B7) (human; mouse), sequence (O75144 other isoform, or with tags, fused parts or gaps limits assumed): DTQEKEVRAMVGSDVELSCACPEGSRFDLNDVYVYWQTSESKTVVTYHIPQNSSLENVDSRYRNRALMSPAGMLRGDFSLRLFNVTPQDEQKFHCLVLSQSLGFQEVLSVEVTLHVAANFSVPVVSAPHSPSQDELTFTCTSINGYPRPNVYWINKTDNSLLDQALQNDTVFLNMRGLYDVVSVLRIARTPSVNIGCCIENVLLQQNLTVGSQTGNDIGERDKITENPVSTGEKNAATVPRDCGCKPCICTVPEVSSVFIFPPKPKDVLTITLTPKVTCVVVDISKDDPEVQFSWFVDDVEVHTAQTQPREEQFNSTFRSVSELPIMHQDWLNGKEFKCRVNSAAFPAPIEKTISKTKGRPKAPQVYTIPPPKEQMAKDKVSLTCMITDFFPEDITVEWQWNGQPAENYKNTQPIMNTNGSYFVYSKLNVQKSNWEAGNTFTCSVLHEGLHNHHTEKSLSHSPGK
# cold ICOS (receptor), sequence (Q9Y6W8 21-140): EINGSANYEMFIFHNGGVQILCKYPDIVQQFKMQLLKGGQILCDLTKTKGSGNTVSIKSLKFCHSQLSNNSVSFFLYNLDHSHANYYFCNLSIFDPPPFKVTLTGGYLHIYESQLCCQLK
IC50 (read off the curve) [1] [nM],IC50 (read off the curve) [2] [nM],IC50 (read off the curve) [3] [nM],Substance
20,,,cold ICOS (receptor)
,0.3,10,Mouse-anti-human CTLA4 clone BNI3 (antibody)
,2,,BNI3 fab

# From patent US20240182575A1
